Experimental data published in article PMC12578637, “Structure of a distinct β-barrel assembly machinery complex in the Bacteroidota” (Nature Microbiology, 2025).

T1: BtBamI (Bt3727) (B. thetaiotaomicron (endogenous in B. …, UniProt Q8A1D9 22-493, lipid anchor cysteine)); O-glycosylation at 10 sites (Ser67 among them))
T1 sequence (looked up): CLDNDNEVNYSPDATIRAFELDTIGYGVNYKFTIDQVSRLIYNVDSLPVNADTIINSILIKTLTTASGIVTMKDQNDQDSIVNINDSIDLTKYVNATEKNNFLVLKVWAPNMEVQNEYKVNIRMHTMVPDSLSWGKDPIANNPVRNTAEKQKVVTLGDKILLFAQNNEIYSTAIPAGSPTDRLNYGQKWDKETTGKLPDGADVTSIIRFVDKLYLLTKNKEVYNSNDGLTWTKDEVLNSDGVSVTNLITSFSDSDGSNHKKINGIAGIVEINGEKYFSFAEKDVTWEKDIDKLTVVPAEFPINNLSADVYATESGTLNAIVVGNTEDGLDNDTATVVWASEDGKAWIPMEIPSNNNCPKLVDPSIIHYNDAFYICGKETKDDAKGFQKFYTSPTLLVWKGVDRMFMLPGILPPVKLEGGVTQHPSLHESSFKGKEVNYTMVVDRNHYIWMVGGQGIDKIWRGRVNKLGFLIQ

T2: BtBamA (Bt3725), B. thetaiotaomicron BamA with N-terminal His7 tag (B. thetaiotaomicron, UniProt Q8A1E1 20-885)
T2 sequence (looked up): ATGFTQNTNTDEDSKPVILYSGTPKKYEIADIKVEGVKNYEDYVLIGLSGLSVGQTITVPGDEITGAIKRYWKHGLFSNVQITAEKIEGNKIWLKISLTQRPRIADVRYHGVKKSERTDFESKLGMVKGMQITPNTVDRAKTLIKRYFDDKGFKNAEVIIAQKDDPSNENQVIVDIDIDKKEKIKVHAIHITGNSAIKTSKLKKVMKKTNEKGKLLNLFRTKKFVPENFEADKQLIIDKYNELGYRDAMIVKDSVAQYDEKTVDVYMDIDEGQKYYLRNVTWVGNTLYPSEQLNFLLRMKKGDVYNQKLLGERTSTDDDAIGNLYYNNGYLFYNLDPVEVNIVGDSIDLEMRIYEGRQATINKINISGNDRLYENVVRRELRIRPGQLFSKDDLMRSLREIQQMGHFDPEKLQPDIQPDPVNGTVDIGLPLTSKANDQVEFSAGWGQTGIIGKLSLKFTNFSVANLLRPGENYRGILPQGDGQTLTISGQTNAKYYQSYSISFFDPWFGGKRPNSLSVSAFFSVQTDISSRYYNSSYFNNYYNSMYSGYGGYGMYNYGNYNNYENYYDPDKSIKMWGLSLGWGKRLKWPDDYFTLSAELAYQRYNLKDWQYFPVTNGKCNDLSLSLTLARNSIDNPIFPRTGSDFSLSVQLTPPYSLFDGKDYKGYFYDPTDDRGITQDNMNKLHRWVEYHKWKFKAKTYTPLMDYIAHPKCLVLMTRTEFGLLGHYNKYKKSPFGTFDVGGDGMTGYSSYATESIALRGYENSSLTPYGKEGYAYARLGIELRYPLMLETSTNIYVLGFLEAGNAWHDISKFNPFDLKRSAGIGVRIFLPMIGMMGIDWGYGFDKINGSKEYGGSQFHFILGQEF

B1: BtBamH (Bt4306) (natural protein, UniProt Q89ZS0 18-542, looked up)
chain: CDDNTGGLGLGMFPGNDQNIKGKLSTFDVTTESVKTGDIYAKTNIGYIGKFTDETFGTYQAGFLAQLNCPDGLTFPEPYKEVTDASGNVISATGRMVVDDKDPENKDVTFIKDGNQIIGNIRAVELYLWYDSYFGDSLTACRLSVYELGGNGKETLNLDNAYYTDINPEDFYDSQNILGTKAYTAVDLSVKDSIRNLSTYVPSVHIAFKEDIATRVGGNILTAARKAKNADKEFNSQLFREAFQGIYVKSDYGDGTVLYIDQPQMNVVYKCYATDSITGKKLQKKDGSGKDSTYYSYRVFATTREVIQANQLKNDPERIDALIKEDKNTYLKSPAGIFTEATLPISDIQNELTGDTLNAVKLTFTNYNQTGDKKFGMAIPSTVMLVRKKFQDSFFKDNKLSDGVSSYLTSHTSSTNQYVFSNITKLVNACIAEKEEAKKNAGSSWDETKWLQENPDWNKVVLIPVLVTYDSSNTTTGQANIIRIQHDLKPGYVRLKGGSLGKTNPDYKLKLEVISTDFGLTTKSN
modifications: tri-acylated lipid anchor on the N-terminal cysteine; O-glycosylation (Ser309 among the sites)

How the values were obtained:
Assay in all cases: cryo-EM structure; BtBAM complex co-purified through BamAhis from native membranes, in DDM, 8 mg/ml; two 3D classes (3.28 Å and 3.46 Å); AF2 models docked and refined
Details in all cases: both partners purified
BtBamI (Bt3727) = molecular target: T1, BtBamI (Bt3727)
BtBamH (Bt4306) = molecular target: B1
[1] = molecular target: T2, BtBamA (Bt3725), B. thetaiotaomicron …

| Binder | binding result (BtBamI (Bt3727)) | binding result (BtBamH (Bt4306)) | binding result [1] |
| --- | --- | --- | --- |
| BtBamJ (Bt3612) (natural protein, UniProt Q8A1P7 20-196, looked up, lipid anchor cysteine; O-glycosylation sites) CSETEEVGKYDNWRARNEAFIDSLANVYATASGRGGLERIEMLTAPGNYIYYKEMEPMTDHVVKAGNPKYTDYVKVYYKGTNILGEYFDGNFKGDNPVVDGKDPSEGDSPTTIFQVSGVITGWGEVLQRMEVGDRWKVYIPWDYAYGSSGTTGILGYSALVFDITLLDFANTEAELK | binds | binds | – |
| B1 | – | – | binds |
